Results on 29 variants are retold here after the supplement of paper PMC6757056.

B1: library; a variant is named by its letters at N, in order (parent)
chain: GCUGUCACCGAGAAACUGUGAAGUAUAUCUUAAACCUGGGCACUUAAAAGAUAUAUGGAGUUAGUAGUGCAACCUGCUCGGUCUGAUGAGUCCNNNNNNGGACGAAACAGC

± gives the standard deviation of the averaged measurements.

The variants in data set [1] derive from B1. Briefly: normalized RNA/DNA level without ligand (relative to sTRSVctl = 100) (log10 (% of sTRSVctl)); HEK293T; ligand: cyclic di-GMP (c-di-GMP-II aptamer); higher = less ribozyme self-cleavage, higher mRNA level. To be noted: reporter: mCherry (pCS4076), ligand present: no. In short, it runs like this:
(§1)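 Only sequences with at least 100 DNA reads were analyzed, from HEK293T cells transfected with 4 µg per 6-well well of ribozyme switch library plasmids 72 h before RNA extraction with EDTA. Any ligand was added 1 h before transfection. RNA level was defined as RNA over DNA reads, normalized to a spiked-in non-cleaving sequence or to the top sequences, then scaled and log-transformed. The top set was 25 sequences, and the scaling was ×100 followed by log10.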

In data set [2] the parent is B1. Kind of data set: normalized RNA/DNA level with ligand (relative to sTRSVctl = 100) (log10 (% of sTRSVctl)); HEK293T; ligand: cyclic di-GMP (c-di-GMP-II aptamer); ligand concentration (+) RNA-Seq: 1 mM; higher = less ribozyme self-cleavage, higher mRNA level. To be noted: reporter: mCherry (pCS4076), ligand present: yes. In short, it runs like this:
as §1

Turning to CUGGAC, the “normalized RNA/DNA level without ligand (log10)” value in data set [1] came out at 1.63 ± 0.018. Moreover, the “normalized RNA/DNA level with ligand (log10)” value in data set [2] was determined as 1.77 ± 0.096.
Taken in the same sequence, the figures for CUGGAG were 1.604 ± 0.006 and 1.77 ± 0.099.
The corresponding values for AUGCAA are 1.52 ± 0.029 and 1.66 ± 0.12.
The corresponding values for AUGCAU are 1.62 ± 0.045 and 1.76 ± 0.12.
Consider AUGCAG, for which the “normalized RNA/DNA level without ligand (log10)” value in data set [1] was 1.7646 ± 0.00074. Further, the “normalized RNA/DNA level with ligand (log10)” value in data set [2] is 1.89 ± 0.055.
The corresponding values for AUGCAC are 1.714 ± 0.0048 and 1.86 ± 0.081.
Taken in the same sequence, the figures for AUGCCU were 1.74 ± 0.044 and 1.87 ± 0.14.
As to AUGCCG, the “normalized RNA/DNA level without ligand (log10)” value in data set [1] is 1.7503 ± 0.0015. The “normalized RNA/DNA level with ligand (log10)” value in data set [2] was determined as 1.86 ± 0.13.
The corresponding values for AUGCCC are 1.79 ± 0.051 and 1.82 ± 0.14.
With GUGCGU, the “normalized RNA/DNA level without ligand (log10)” value in data set [1] was 1.69 ± 0.052. Besides, in data set [2], the “normalized RNA/DNA level with ligand (log10)” value turned out to be 1.84 ± 0.14.
Taken in the same sequence, the figures for GUGCGC were 1.74 ± 0.057 and 1.88 ± 0.056.
Taken in the same sequence, the figures for GUGCGA were 1.6 ± 0.071 and 1.73 ± 0.1.
With GUGCGG, the “normalized RNA/DNA level without ligand (log10)” value in data set [1] was 1.86 ± 0.043. For the same variant, in data set [2], the “normalized RNA/DNA level with ligand (log10)” value was 1.92 ± 0.08.
Taken in the same sequence, the figures for AUGCUG were 1.68 ± 0.028 and 1.83 ± 0.074.
The corresponding values for AUGCUA are 1.57 ± 0.034 and 1.77 ± 0.06.
Consider AUGCUC, for which the “normalized RNA/DNA level without ligand (log10)” value in data set [1] was found to be 1.74 ± 0.052. Also, the “normalized RNA/DNA level with ligand (log10)” value in data set [2] stood at 1.85 ± 0.046.
Taken in the same sequence, the figures for AUGCUU were 1.61 ± 0.025 and 1.8 ± 0.12.
The corresponding values for UUGCAG are 1.8468 ± 0.00037 and 1.9 ± 0.042.
The corresponding values for UUGCAU are 1.669 ± 0.0095 and 1.81 ± 0.081.
UUGCAC: the “normalized RNA/DNA level without ligand (log10)” value in data set [1] was 1.75 ± 0.024. Also, the “normalized RNA/DNA level with ligand (log10)” value in data set [2] is 1.85 ± 0.11.
The corresponding values for UUGCAA are 1.69 ± 0.075 and 1.81 ± 0.037.
UUCUGU: in data set [1], the “normalized RNA/DNA level without ligand (log10)” value is 1.7281 ± 0.00073. Also, the “normalized RNA/DNA level with ligand (log10)” value in data set [2] turned out to be 1.86 ± 0.1.
Taken in the same sequence, the figures for UUCUGG were 1.79 ± 0.04 and 1.89 ± 0.085.
For AUCUUU, in data set [1], the “normalized RNA/DNA level without ligand (log10)” value came to 1.69 ± 0.046. For the same variant, the “normalized RNA/DNA level with ligand (log10)” value in data set [2] amounted to 1.86 ± 0.1.
The corresponding values for AUCUUC are 1.81 ± 0.038 and 1.92 ± 0.086.
Taken in the same sequence, the figures for AUCUUG were 1.657 ± 0.0055 and 1.81 ± 0.093.
The corresponding values for AUCUUA are 1.61 ± 0.037 and 1.76 ± 0.12.
Consider CUGAGG, for which the “normalized RNA/DNA level without ligand (log10)” value in data set [1] turned out to be 1.73 ± 0.031. The “normalized RNA/DNA level with ligand (log10)” value in data set [2] stood at 1.88 ± 0.16.
Taken in the same sequence, the figures for CUGAGA were 1.46 ± 0.079 and 1.69 ± 0.11.
